Tests used:
[1] = test system: SGNs in cochlear explants; experiment: Protective effects in cochlear explant cultures co-treated with ototoxins, SGN peripheral axon count; type: cell-based, rat; details: for protective effects on SGNs against ototoxins: growth factor added together with ototoxin, data not shown
Protocol: (§1) FIGS. 9A and 9B depict quantitation of protective effects of NT-4/5 on SGNs (FIG. 9A) and hair cells (FIG. 9B). […] The same experimental procedures were performed as in FIGS. 6A and 6B. The error bars are SEM and ** indicate that as compared to the cultures containing an ototoxin alone, p<0.001. “Con” indicates control culture.
FIG. 10 depicts quantitation of neuroprotection of different neurotrophins against sodium salicylate (Sal) and gentamicin (Gent). […] Sodium salicylate (5 mM) or gentamicin (3 mM) was added either alone or in combination with one of the neurotrophins (20 ng/ml) to 2-day cultures and the cultures were kept for 2 more days. The same experimental procedures were performed as in FIGS. 6A and 6B. […] The error bars are SEM and ** indicate that as compared to the cultures containing an ototoxin alone, p<0.001.
(§2) The protective effect of neurotrophins against ototoxicity was determined in the organotypic cultures of postnatal cochlear explants described in the Examples above. […] A human recombinant neurotrophin (Genentech, Inc.) or other growth factors, alone or in combination, was added to the culture at the same time the ototoxin was added.
(§3) Two days after treatment with ototoxins or co-treatment with ototoxins and neurotrophins (or other growth factors), the cochlear explant cultures were fixed in 4% paraformaldehyde in 0.1 M phosphate buffer (pH 7.4) for 30 min, washed in PBS, and subjected to double histochemical staining of the cochlear explant cultures. After incubation with the monoclonal antibody N52 against neurofilament protein (200 kd) in 1% Triton X100 containing 3% normal goat serum (“NGS”) for 2 days at 4° C., the explants were incubated with a Texas red-conjugated goat anti-mouse secondary antibody (1:70; Cappel) at room temperature for 40 min. The preparations were then stained with FITC-conjugated phalloidin (0.5 μg/ml; Sigma) for 45 min, washed in PBS and mounted in Fluoromount-G (Southern Biotechnology Associates, Birmingham, Ala.) which contains an anti-fading agent.

[2] = test system: hair cells in cochlear explants; experiment: Protective effects in cochlear explant cultures co-treated with ototoxins, hair cell count; type: cell-based, rat; details: for protective effects on hair cells against ototoxins: growth factor added together with ototoxin, data not shown
Protocol: as §1, §2, §3

[3] = biological target: trkC receptor (Homo sapiens, UniProt Q16288); details: compared with NT-3; cited from earlier work
Chain of trkC receptor (Q16288 32-839): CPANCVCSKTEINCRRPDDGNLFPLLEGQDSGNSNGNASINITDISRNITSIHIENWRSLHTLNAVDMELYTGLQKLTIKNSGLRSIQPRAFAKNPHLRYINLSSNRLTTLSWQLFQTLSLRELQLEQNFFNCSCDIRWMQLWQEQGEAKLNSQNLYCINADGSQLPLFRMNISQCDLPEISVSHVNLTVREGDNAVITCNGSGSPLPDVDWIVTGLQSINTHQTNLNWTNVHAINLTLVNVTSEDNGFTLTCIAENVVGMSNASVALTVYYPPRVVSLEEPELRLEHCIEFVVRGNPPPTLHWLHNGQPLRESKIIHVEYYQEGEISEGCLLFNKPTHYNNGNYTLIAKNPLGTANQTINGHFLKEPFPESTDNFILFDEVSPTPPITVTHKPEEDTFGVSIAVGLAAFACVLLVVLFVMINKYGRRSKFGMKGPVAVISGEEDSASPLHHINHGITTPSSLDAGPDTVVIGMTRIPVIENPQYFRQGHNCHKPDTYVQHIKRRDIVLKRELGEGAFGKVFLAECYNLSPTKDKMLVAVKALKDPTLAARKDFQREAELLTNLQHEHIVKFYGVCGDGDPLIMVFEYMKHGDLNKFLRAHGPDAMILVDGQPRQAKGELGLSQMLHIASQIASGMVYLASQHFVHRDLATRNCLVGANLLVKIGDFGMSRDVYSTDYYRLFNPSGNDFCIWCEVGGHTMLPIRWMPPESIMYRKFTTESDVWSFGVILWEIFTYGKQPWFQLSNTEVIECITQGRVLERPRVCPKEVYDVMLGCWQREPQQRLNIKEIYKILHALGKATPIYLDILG

[4] = test system: spiral ganglion neurons (SGNs); experiment: Survival of dissociated spiral ganglion neurons in serum-free culture; type: cell-based, rat; details: for survival-promoting effect on SGNs: P5 rat SGNs, neurotrophins 0.1-50 ng/ml
Protocol: FIG. 1 is a histogram depicting the effects of NT-4/5 on SGN survival. SGNs were prepared from P5 rats, plated and kept for 2 days in serum-free medium in the absence or presence of NT-4/5 at different concentrations. Viable SGNs were identified by labeling with a neurofilament monoclonal antibody (N52), viewed under a Zeiss Axiophot microscope, and counted using a grid ocular reticule covering an area of […]. For each culture, about 10 randomly selected fields were counted. Data were collected from 3 to 5 cultures and normalized as a percentage of the number of viable neurons in the control cultures in each of the experiments. The error bars represent SEM.
FIG. 2 is a histogram depicting the effects of different neurotrophins on SGN survival. SGNs were prepared from P5 rats and maintained for 2 days in serum-free medium without or with different neurotrophins at different concentrations. Quantitation of viable SGNs was made in the same way as in FIG. 1 and the error bars are SEM. […] Difference between NT-3 and NT-4/5 or BDNF was very significant at all doses (P<0.001). No statistical difference was found between NT-4/5 and BDNF except the dose of 0.1 ng/ml (P<0.01).
Identical results (not shown) were also obtained with a different neuronal marker, a monoclonal antibody 3A10 (Furley et al., 1990). SGNs were dissociated from postnatal day 5 (P5) rat cochleae and plated in defined serum-free medium. […] The enzyme was inactivated with a mixture of 0.005% soybean trypsin inhibitor (Sigma) and 0.005% DNase (Worthington) before trituration with 0.05% DNase in Eagle's Basal Medium (“BME”). The dissociated cells were preplated on a 35 mm untreated tissue culture dish for 25 min to enrich the neuronal population. Under these experimental procedures, about 10% of the cell population were spiral ganglion neurons (“SGNs”) as determined by immunocytochemistry with a monoclonal antibody (N52; Boehringer) against neurofilaments (200 kd; Boehringer). […] Cells were plated at a density of 80,000/well. In control cultures about 75% of SGNs died after 2 days, presumably due to a lack of growth factors.

[5] = test system: spiral ganglion neurons (SGNs); experiment: Neurotrophin protection of dissociated SGNs against cisplatin neurotoxicity; type: cell-based, rat; details: 10 ng/ml neurotrophin
Source text: Quantitation of viable SGNs was done in the same way as in FIG. 1. The error bars stand for SEM. […] While no difference was found between cultures containing NT-4/5 and cultures containing BDNF, the difference between cultures containing NT-3 and cultures containing NT-4/5 or BDNF was statistically very significant (P<0.001).

Molecule | protective effects on SGNs against ototoxins [1] | protective effects on hair cells against ototoxins [2] | survival-promoting effect on SGNs ([4]; 2 days, serum-free medium) | also measured
FGF-5: growth factor (R & D Systems) (protein, UniProt P12034 21-268, looked up) Fibroblast growth factor 5: HGEKRLAPKGQPGPAATDRNPRGSSSRQSSSSAMSSSSASSSPAASLGSQGSGLEQSSFQWSPSGRRTGSLYCRVGIGFHLQIYPDGKVNGSHEANMLSVLEIFAVSQGIVGIRGVFSNKFLAMSKKGKLHASAKFTDDCKFRERFQENSYNTYASAIHRTEKTGREWYVALNKRGKAKRGCSPRVKPQHISTHFLPRFKQSEQPELSFTVTVPEKKKPPSPIKPKIPLSAPRKNTNSVKYRLKFRFG | did not show detectable protective effects | did not show detectable protective effects | – | –
E92A NT-3: NT-3 with mutation at position E92 to alanine (protein, UniProt P20783 139-257, looked up, variant E92A, Neurotrophin-3, NT-3 with mutation at position E92 to alanine) Neurotrophin-3: YAEHKSHRGEYSVCDSESLWVTDKSSAIDIRGHQVTVLGEIKTGNSPVKQYFYETRCKEARPVKNGCRGIDDKHWNSQCKTSQTYVRALTSANNKLVGWRWIRIDTSCVCALSRKIGRT | – | – | – | trkC binding of NT-3 mutant [3]: increased trkC binding
TGF-β3: transforming growth factor (protein, UniProt P10600 301-412, looked up) Transforming growth factor …: ALDTNYCFRNLEENCCVRPLYIDFRQDLGWKWVHEPKGYYANFCSGPCPYLRSADTTHSTVLGLYNTLNPEASASPCCVPQDLEPLTILYYVGRTPKVEQLSNMVVKSCKCS | did not show detectable protective effects | did not show detectable protective effects | No survival-promoting effects | –
FGF-7: growth factor (R&D Systems) (protein, UniProt P21781 32-194, looked up) Fibroblast growth factor 7: CNDMTPEQMATNVNCSSPERHTRSYDYMEGGDIRVRRLFCRTQWYLRIDKRGKVKGTQEMKNNYNIMEIRTVAVGIVAIKGVESEFYLAMNKEGKLYAKKECNEDCNFKELILENHYNTYASAKWTHNGGEMFVALNQKGIPVRGKKTKKEQKTAHFLPMAIT | did not show detectable protective effects | did not show detectable protective effects | – | –
TGF-β2: transforming growth factor (protein, UniProt P61812 303-414, looked up) Transforming growth factor …: ALDAAYCFRNVQDNCCLRPLYIDFKRDLGWKWIHEPKGYNANFCAGACPYLWSSDTQHSRVLSLYNTINPEASASPCCVSQDLEPLTILYYIGKTPKIEQLSNMIVKSCKCS | did not show detectable protective effects | did not show detectable protective effects | No survival-promoting effects | –
neurotrophin-4/5 (protein, UniProt P34130 81-210, looked up, Neurotrophin-4) Neurotrophin-4: GVSETAPASRRGELAVCDAVSGWVTDRRTAVDLRGREVEVLGEVPAAGGSPLRQYFFETRCKADNAEEGGPGAGGGGCRGVDRRHWVSECKAKQSYVRALTADAQGRVGWRWIRIDTACVCTLLSRTGRA | – | – | greatly enhanced the number of surviving SGNs in a dose-dependent manner | potency on SGN survival compared with other neurotrophins ([4]; 0.1 ng/ml): more potent than BDNF; maximal effect, increase in number of surviving SGNs ([4]; 10 ng/ml, 2 days, serum-free medium, vs control cultures): approximately 3 fold; synergistic/additive effects on SGN survival when added together with BDNF or NT-3 ([4]; saturated concentrations): no additive effects; percentage of surviving SGNs compared with control cultures lacking cisplatin ([5]; 1 μg/ml or 2 μg/ml cisplatin, 2 days): higher than that in the control cultures lacking cisplatin; protection of SGNs compared with cultures containing cisplatin alone ([5]; 4 μg/ml cisplatin): significantly protected SGNs from cell death; survival level, % of control cultures in the absence of cisplatin ([5]; 4 μg/ml cisplatin, 2 days): 70%; neuroprotection of SGNs against sodium salicylate and gentamicin ([1]; 20 ng/ml neurotrophin, sodium salicylate 5 mM or gentamicin 3 mM): significant neuroprotection; number of SGNs in control cultures ([1]; 20 ng/ml, no ototoxin): did not enhance; protection of SGNs from the three ototoxins ([1]; 20 ng/ml, sodium salicylate 5 mM, gentamicin 3 mM or cisplatin 4 μg/ml, 2 days co-treatment): significantly protected SGNs from the three ototoxins; number of hair cells in control cultures ([2]; 20 ng/ml, no ototoxin): did not enhance

From patent publication US6429191B1, “Treatment of hearing impairments” (Genentech, Inc., priority 1996, dated 2002)
